Data as given in the supplement of paper PMC10567573.

B1: SMOC2 (parent)
chain: DCAGSPQKPLCASDGRTFLSRCEF

Variants of: B1
Test: protein stability index of a GFP-peptide fusion (GPS, HEK-293T) (PSI 1-6); higher = more stable
Conditions: c terminus: a fixed tail appended
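Note: lentivirally expressed fusions sorted by FACS into six bins by GFP to DsRed ratio, PSI derived from sequencing read proportions per bin multiplied by bin number.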

Protein stability index: each site, then its substitutions
C22: E 4.38 | W 2.93 | T 3.29 | N 4.36 | S 3.49 | K 4.42 | V 2.63 | P 3.95 | H 3.68 | L 2.5 | D 4.81 | Y 3.67 | F 2.5 | M 2.31 | G 3.96 | Q 4.19 | A 3.86
F24: S 3.46 | N 3.93 | D 4.38 | T 2.61 | H 3.79 | Q 3.6 | A 3.45 | Y 2.67 | L 3.44 | I 3.16 | P 2.43 | M 2.72 | V 3.32 | K 2.97 | R 2.57 | W 2.02 | E 4.41
S13: W 2.09 | V 2.61 | L 2.07 | I 3.88 | H 2.29 | Q 2.58 | G 2.08 | M 2.3 | N 2.82 | K 2.39 | F 1.7 | R 2.34 | P 1.9 | T 2.91 | Y 2.25
S20: M 1.41 | Y 1.9 | P 3.59 | N 3.64 | F 1.25 | W 3.01 | V 3.04 | E 2.93 | L 3.1 | Q 2.97 | D 4.1 | R 3.23 | K 3.04 | C 2.86 | G 2.17 | I 3.04 | H 2.68 | A 2.85
T17: C 2.04 | Q 3.7 | D 3.12 | P 3.4 | Y 2.77 | I 2.33 | M 3.31 | S 2.66 | N 3.27 | F 2.32 | W 1.29 | G 3.97 | E 3.82 | V 2.22 | L 2.11 | K 3.44 | A 2.83 | R 2.47 | H 3.45
G15: T 2.65 | Y 2.81 | L 2.17 | A 4.08 | S 2.5 | E 4.05 | D 3.49 | C 1.99 | R 2.83 | V 2.03 | H 2.27 | Q 2.57 | M 2.81 | F 2.42 | K 2.3 | P 3 | W 2.06 | N 3.01 | I 2.76
R16: K 3.29 | Q 3.19 | D 4.12 | I 2.4 | W 1.72 | Y 2.33 | A 2.99 | E 4.14 | L 2.5 | V 2.77 | M 2.88 | G 3.4 | S 3.08 | H 3.97 | P 3.43 | T 3.39 | C 2.33 | F 1.35 | N 3.61
F18: C 3.73 | K 4.09 | T 4 | D 4.51 | P 4 | V 2.84 | G 4.82 | Y 3.09 | R 3.84 | N 4.26 | M 4.01 | H 4.32 | Q 3.89 | L 4.12 | E 4.54 | I 3.4 | A 3.52 | W 1.79 | S 3.83
E23: D 3.65 | C 2.53 | K 3.63 | A 2.59 | R 2.43 | F 2.38 | T 2.19 | Y 1.84 | S 2.74 | W 1.82 | V 1.73 | I 1.52 | P 2.95 | Q 3.27 | N 3.31 | G 1.5 | M 2.1 | L 4.25 | H 2.46
D14: W 1.89 | G 2.56 | A 2.52 | I 2.12 | E 2.54
